Measured values reported in PMC3898472, “Molecular Basis for DNA Double-Strand Break Annealing and Primer Extension by an NHEJ DNA Polymerase”.

B1: 1-nt gapped FP-T/FP-P/FP-D, 5'-P (dsDNA)
DNA 1: GGCAGCTTGGATCTTGTCGAAAAACGTCAACATTCGCCTAGGCTTCGGCAATACTGAGGTCTTGTCGAAAAACGTCAACATTGCGTGGCC
DNA 2: GGCCACGCAATGTTGACGTTTTTCGACAAGACCTCAGTAT
DNA 3: GCCGAAGCCTAGGCGAATGTTGACGTTTTTCGACAAGATCCAAGCTGCC
modifications: 5'-phosphate on FP-D
B2: annealed break T/D (dsDNA)
DNA 1: GCCGCAGATC
DNA 2: GCGGC
modifications: 5'-phosphate on D

Tests used:
[1] = biological target: Mt-PolDom (LigD polymerase domain) (UniProt P9WNV3 1-300); experiment: DNase I footprinting; 5 ug protein; conditions: protein: recombinant; label: 32P 5'-end label
Mt-PolDom (crystal) = Mt-PolDom (crystal) (UniProt P9WNV3 1-300); experiment: crystal structure 2.4 A; 10 mM MnCl2; conditions: protein: recombinant

| Binder | binding result [1] | binding result (Mt-PolDom (crystal)) |
| --- | --- | --- |
| B1 | binds |  |
| B2 |  | binds |
